Article PMC6226484

Target: Avi-barnase (G34C/H102A), biotinylated, labeled with Alexa 488
Experiment: FRET or BRET; single-molecule FRET; donor-labeled barnase immobilised on PEG-coated glass via biotin-NeutrAvidin, acceptor-labeled barstar (20 nM) in solution; 10 mM Tris pH 7, 0 mM NaCl and higher (printed kA at 0 mM NaCl); 22 °C; illumination 0.3 μW; two-state maximum likelihood analysis with correction for acceptor photobleaching

Q: How did the kon turn out when “Cys-barstar, labeled with Alexa 647 (natural protein)” was run?
A: 1e+08 M⁻¹ s⁻¹
